The values that follow come from patent US20190016816A1 (APTEVO RESEARCH AND DEVELOPMENT, published 2019).

The target in test [1] is T1, human 5T4 on cells (human, UniProt Q13641 32-420).
T1 construct: also called TPBG; hu5T4
T1 sequence: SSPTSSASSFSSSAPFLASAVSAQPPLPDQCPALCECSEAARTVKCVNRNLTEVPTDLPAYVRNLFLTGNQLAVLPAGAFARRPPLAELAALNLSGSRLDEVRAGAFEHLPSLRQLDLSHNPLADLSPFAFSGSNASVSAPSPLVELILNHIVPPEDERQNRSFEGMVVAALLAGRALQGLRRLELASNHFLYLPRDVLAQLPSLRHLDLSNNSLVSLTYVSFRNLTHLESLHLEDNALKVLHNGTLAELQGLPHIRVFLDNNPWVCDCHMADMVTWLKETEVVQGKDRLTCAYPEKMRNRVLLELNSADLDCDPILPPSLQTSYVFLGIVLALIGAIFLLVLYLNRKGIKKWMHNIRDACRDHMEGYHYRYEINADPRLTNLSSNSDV
In words: flow cytometry, MDA.MB-231 cells, PE goat anti-human Fc. The protocol:
A 3-fold titration of ALG.APV-210 construct (ranging from 100 nM to 0.14 nM) was incubated with the human 5T4-expressing cell lines for 40 minutes in FACS buffer at 4° C., washed 3 times, and detected with PE-labeled, goat-anti-human Fc secondary antibody (Jackson ImmunoResearch). Binding of ALG.APV-210 was detected by flow cytometry. All samples were run in duplicates. Nonlinear regression analysis to determine EC₅₀ values was performed in GraphPad Prism 6® graphing and statistics software.
In general terms: Flow cytometry measures light scatter and fluorescence of single cells or particles in a stream.

Test [2] concerns the target T1, human 5T4 on cells. In words: flow cytometry, HT-29 cells, streptavidin-PE, normalized MFI of 2 pooled experiments. The protocol:
(§1) Prior to the FACS staining, all cell lines were characterized for their 5T4 expression levels using a receptor density kit (Quantum Simply Cellular, anti-human IgG, Bangs Laboratories, Inc). Adherent cell lines were cultured according to their supplier's instructions and were harvested from their cell culture flasks using Trypsin/EDTA, counted in R10 medium in a Burker chamber, and diluted in FACS buffer (PBS+0.5% BSA, 0.05% NaN₃) to a concentration of 4×10⁶ cells/mL. 50 μL (0.20×10⁶) of cell solution was added to a 96-well FACS staining plate (Falcon #351190). Cells were incubated for 20 min in 4° C. with 50 μL of the biotinylated ALG.APV-210 (2× final concentration). The antibodies were added in a serial dilution starting at 20 μg/mL titrating down in a 12 step ½ dilution down to 0.010 μg/mL. Following 2× washing with FACS buffer, cells were incubated for 30 min in 4° C. with 100 μL of a secondary antibody (streptavidin-PE, BD #554061, diluted 1/500). […] Cells were analysed for ALG.APV-210 binding using flow cytometry (FACSVerse) by gating on single cells. MFI values (secondary antibody only subtracted) from 1 out of 2 independent experiments, as well as normalized data and EC₅₀-values of pooled data from 2 experiments were determined and plotted using GraphPad Prism 7, non-linear regression log (agonist) vs. normalized response—variable slope.

Test [3] addresses T1, human 5T4 on cells. In words: flow cytometry, HT29 cells (endogenous human 5T4), biotinylated ALG.APV-210 + streptavidin-PE, 1 of 2 experiments. The protocol: as §1, with “μg/mL.” for “μg/mL. Following 2× washing with FACS buffer, cells were incubated for 30 min in 4° C. with 100 μL of a secondary antibody (streptavidin-PE, BD #554061, diluted 1/500).”
(§2) The binding (EC₅₀) of the biotinylated ALG.APV-210 to 5T4 when expressed on cells, either at endogenous levels on human tumor cells or on cells transfected to express 5T4 was assessed. […]

In test [4] the target is T1, human 5T4 on cells. In words: flow cytometry, CT26 cells transfected with human 5T4 (low clone), biotinylated ALG.APV-210 + streptavidin-PE, 1 of 2 experiments. The protocol: as §1, with “μg/mL.” for “μg/mL. Following 2× washing with FACS buffer, cells were incubated for 30 min in 4° C. with 100 μL of a secondary antibody (streptavidin-PE, BD #554061, diluted 1/500).”
as §2

Test [5] concerns the target T2, cynomolgus CD137 on cells (cynomolgus macaque, UniProt A9YYE7 24-254).
T2 construct: whole, on cells; also called CHO-K1/cynomolgus CD137 cell line; cynomolgus monkey CD137 on CD3-stimulated primary CD8 T cells
In words: flow cytometry, percentage of CD8 T cells (gated from CD3-stimulated cynomolgus PBMC) bound by the biotinylated antibody, exp 1, n=3 donors. As for the experimental part:
(§3) Following 48 h of incubation with or without CD3, human and cynomolgus PBMC were harvested, pooled, recounted and diluted in FACS buffer (PBS+0.5% BSA, 0.05% NaN₃) to a concentration of 5×10⁶ cells/mL. 50 μL (0.25×10⁶ cells) of cell solution was added to a 96-well FACS staining plate (Falcon #351190). Following 10 min of Fc-blocking in RT using Beriglobin (hIgG, 200 μg/mL), cells were washed in FACS buffer and then incubated for 1 h in 4° C. with 100 μL of the biotinylated ALG.APV-210 or negative control. The antibodies were added in a serial dilution starting either at 5 μg/mL titrating down in a 12 step ⅓ dilution down to […] (exp 1) or 1 μg/mL titrating down in a 12 step ½ dilution down to 0.0005 μg/mL (exp 2). […] Cells were analysed for ALG.APV-210 binding using flow cytometry by gating on viable, single cells expressing CD3 and CD8. MFI values (FMO subtracted) from 2 independent experiments as well as normalized pooled data from 2 experiments and EC₅₀-values were determined and plotted using GraphPad Prism 7, non-linear regression log (agonist) vs. normalized response—variable slope, n=6 donors/group.

Test [6] addresses T2, cynomolgus CD137 on cells. In words: flow cytometry, normalized percentage of CD8 T cells (gated from CD3-stimulated cynomolgus PBMC) bound by the biotinylated antibody, pooled data of 2 exp, n=6 donors. The protocol:
as §3

T2 sequence (A9YYE7 entry or part of it): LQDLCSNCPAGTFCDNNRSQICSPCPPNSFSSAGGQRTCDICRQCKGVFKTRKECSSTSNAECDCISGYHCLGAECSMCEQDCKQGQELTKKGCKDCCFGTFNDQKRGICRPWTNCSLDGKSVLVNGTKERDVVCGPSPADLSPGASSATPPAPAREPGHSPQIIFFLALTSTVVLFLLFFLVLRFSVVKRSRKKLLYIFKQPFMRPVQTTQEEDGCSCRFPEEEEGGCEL

B1: ALG.APV-210 (bispecific antibody)
chain: EVQLLESGGGLVQPGGSLRLSCAASGFTFSHGSMYWVRQAPGKGLEWVSSISSGSGSTYYADSVKGRFTISHDNSKNTLYLQMNSLRAEDTAVYYCARSSYYGSYYSIDYWGQGTLVTVSSGGGGSGGGGSGGGGSGGGGSDIQMTQSPSSLSASVGDRVTITCRASQSISSYLNWYQQKPGKAPKLLIYAASSLQSGVPSRFSGSGSGTDFTLTISSLQPEDFATYYCQQYYDNLPTFGQGTKLEIKEPKSSDKTHTCPPCPAPEAAGAPSVFLFPPKPKDTLMISRTPEVTCVVVDVSHEDPEVKFNWYVDGVEVHNAKTKPREEQYNSTYRVVSVLTVLHQDWLNGKEYKCAVSNKALPAPIEKTISKAKGQPREPQVYTLPPSRDELTKNQVSLTCLVKGFYPSDIAVEWESNGQPENNYKTTPPVLDSDGSFFLYSKLTVDKSRWQQGNVFSCSVMHEALHNHYTQKSLSLSPGSGGGGSGGGGSGGGGSPSEVQLLESGGGLVQPGGSLRLSCAASGFTFSSYAMSWVRQAPGKCLEWVSAISGSGGSTYYADSVKGRFTISRDNSKNTLYLQMNSLRAEDTAVYYCARYYGGYYSAWMDYWGQGTLVTVSSGGGGSGGGGSGGGGSGGGGSDIQMTQSPSSLSASVGDRVTITCRASQSISSFLNWYQQKPGKAPKLLIYAASSLQSGVPSRFSGSGSGTDFTLTISSLQPEDSATYYCQQTYGYLHTFGCGTKLEIKR
notes: Optimized ADAPTIR scFv-Fc-scFv homodimer with stabilizing disulfide in the 1210 scFv; also called 5T4-CD137 bispecific antibody
As a reminder, the EC50 is the concentration that produces a half-maximal response. The low end stands for an effect from little substance, the high end for a need for much substance. Regarding B1, in the test with human 5T4 on cells [1], the response was half-maximal at 21 nM (EC50).

B2: biotinylated ALG.APV-210 (bispecific antibody)
chain: B1 chain
notes: also called ALG.APV-210 (biotinylated for FACS detection)
Broadly, the EC50 (read off the curve) is the concentration giving half of the maximal effect. With B2, the EC50 with human 5T4 on cells [2] turned out to be 12 nM; in test [6], 0.019 nM. For the same molecule, the “EC50 (read off the curve)” value was about 10 nM in the test with human 5T4 on cells [3], about 10 nM with human 5T4 on cells [4] and about 0.02 nM in test [5].
